From patent US20200270325A1 (Merck Sharp & Dohme, published 2020)
Numbered stars: 1 amine (or outer) side, 2 acyl side, 3 side chain; on linkers, the order of the positions; unused ones are H or OH. Square brackets hold non-standard residues; d marks the D form. Primed or numbered codes have the meaning given here. Side chains are listed from the residue outwards. Ends that are not written are not given here. * marks the point of attachment. C18 diacid = O=C(O)CCCCCCCCCCCCCCCCC(=O)*; C16 diacid = O=C(O)CCCCCCCCCCCCCCC(=O)*; γGlu = O=C(O)[C@H](CCC(=O)[*:2])N[*:1]; Met(O2) = CS(=O)(=O)CC[C@H](N)C(=O)O; αMeD = C[C@](N)(CC(=O)O)C(=O)O; αMeS = C[C@](N)(CO)C(=O)O; PEG2′ = not defined here; AEEA = NCCOCCOCC(=O)O; Aib = CC(C)(N)C(=O)O

Legend:
[1] = molecular target: human Glucagon receptor (GCGR) (human, UniProt P47871 26-477); assay: cell-based or functional assay
[2] = molecular target: human GLP-1 receptor (GLP1R) (human, UniProt P43220 24-463); assay: cell-based or functional assay

human Glucagon receptor (GCGR), sequence (P47871 26-477): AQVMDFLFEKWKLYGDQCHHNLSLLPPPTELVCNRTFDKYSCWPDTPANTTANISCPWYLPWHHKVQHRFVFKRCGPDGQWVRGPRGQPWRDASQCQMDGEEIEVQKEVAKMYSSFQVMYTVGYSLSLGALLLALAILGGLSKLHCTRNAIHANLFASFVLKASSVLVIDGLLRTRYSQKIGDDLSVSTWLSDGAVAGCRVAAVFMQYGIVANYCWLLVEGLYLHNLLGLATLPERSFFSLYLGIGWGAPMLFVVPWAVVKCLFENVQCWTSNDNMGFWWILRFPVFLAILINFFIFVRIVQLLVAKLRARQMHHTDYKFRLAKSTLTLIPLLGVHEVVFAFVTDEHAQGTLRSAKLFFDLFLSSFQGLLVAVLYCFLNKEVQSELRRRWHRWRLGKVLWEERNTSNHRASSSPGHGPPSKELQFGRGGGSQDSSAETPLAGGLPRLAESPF

Row | Binder | GCGR EC50 human [1] [nM] | GLP1R EC50 human [2] [nM]
1 | H[αMeS]QGTFTSDYSKYLD[Aib]RAAK([AEEA-AEEA-γGlu-C18 diacid])DFVQWL[Met(O2)][αMeD]T-NH2 (N-terminus assumed; SMILES CC(C)C[C@H](NC(=O)[C@H](Cc1ccc(O)cc1)NC(=O)[C@H](CCCCN)NC(=O)[C@H](CO)NC(=O)[C@H](Cc1ccc(O)cc1)NC(=O)[C@H](CC(=O)O)NC(=O)[C@H](CO)NC(=O)[C@@H](NC(=O)[C@H](Cc1ccccc1)NC(=O)[C@@H](NC(=O)CNC(=O)[C@H](CCC(N)=O)NC(=O)[C@](C)(CO)NC(=O)[C@@H](N)Cc1c[nH]cn1)[C@@H](C)O)[C@@H](C)O)C(=O)N[C@@H](CC(=O)O)C(=O)NC(C)(C)C(=O)N[C@@H](CCCNC(=N)N)C(=O)N[C@@H](C)C(=O)N[C@@H](C)C(=O)N[C@@H](CCCCNC(=O)COCCOCCNC(=O)COCCOCCNC(=O)CC[C@H](NC(=O)CCCCCCCCCCCCCCCCC(=O)O)C(=O)O)C(=O)N[C@@H](CC(=O)O)C(=O)N[C@@H](Cc1ccccc1)C(=O)N[C@H](C(=O)N[C@@H](CCC(N)=O)C(=O)N[C@@H](Cc1c[nH]c2ccccc12)C(=O)N[C@@H](CC(C)C)C(=O)N[C@@H](CCS(C)(=O)=O)C(=O)N[C@@](C)(CC(=O)O)C(=O)N[C@H](C(N)=O)[C@@H](C)O)C(C)C) [TP620] | 1.26 | 8.58
2 | H[αMS]QGTFTSDYSKYLD[Aib]RAAQK([PEG2′-PEG2′-γGlu-C16 diacid])FVQWL[Met(O2)][αMD]T-NH2 [TP619] | 0.05 | 0.38
3 | H[αMeS]QGTFTSDYSKYLD[Aib]RAAQK([AEEA-AEEA-γGlu-C18 diacid])FVQWL[Met(O2)][αMeD]T-NH2 (N-terminus assumed; SMILES CC(C)C[C@H](NC(=O)[C@H](Cc1ccc(O)cc1)NC(=O)[C@H](CCCCN)NC(=O)[C@H](CO)NC(=O)[C@H](Cc1ccc(O)cc1)NC(=O)[C@H](CC(=O)O)NC(=O)[C@H](CO)NC(=O)[C@@H](NC(=O)[C@H](Cc1ccccc1)NC(=O)[C@@H](NC(=O)CNC(=O)[C@H](CCC(N)=O)NC(=O)[C@](C)(CO)NC(=O)[C@@H](N)Cc1c[nH]cn1)[C@@H](C)O)[C@@H](C)O)C(=O)N[C@@H](CC(=O)O)C(=O)NC(C)(C)C(=O)N[C@@H](CCCNC(=N)N)C(=O)N[C@@H](C)C(=O)N[C@@H](C)C(=O)N[C@@H](CCC(N)=O)C(=O)N[C@@H](CCCCNC(=O)COCCOCCNC(=O)COCCOCCNC(=O)CC[C@H](NC(=O)CCCCCCCCCCCCCCCCC(=O)O)C(=O)O)C(=O)N[C@@H](Cc1ccccc1)C(=O)N[C@H](C(=O)N[C@@H](CCC(N)=O)C(=O)N[C@@H](Cc1c[nH]c2ccccc12)C(=O)N[C@@H](CC(C)C)C(=O)N[C@@H](CCS(C)(=O)=O)C(=O)N[C@@](C)(CC(=O)O)C(=O)N[C@H](C(N)=O)[C@@H](C)O)C(C)C) [TP621] | 0.25 | 1.94
4 | H[αMeS]QGTFTSDYSKYLD[Aib]RAAK([AEEA-AEEA-γGlu-C16 diacid])DFVQWL[Met(O2)][αMeD]T-NH2 (N-terminus assumed; SMILES CC(C)C[C@H](NC(=O)[C@H](Cc1ccc(O)cc1)NC(=O)[C@H](CCCCN)NC(=O)[C@H](CO)NC(=O)[C@H](Cc1ccc(O)cc1)NC(=O)[C@H](CC(=O)O)NC(=O)[C@H](CO)NC(=O)[C@@H](NC(=O)[C@H](Cc1ccccc1)NC(=O)[C@@H](NC(=O)CNC(=O)[C@H](CCC(N)=O)NC(=O)[C@](C)(CO)NC(=O)[C@@H](N)Cc1c[nH]cn1)[C@@H](C)O)[C@@H](C)O)C(=O)N[C@@H](CC(=O)O)C(=O)NC(C)(C)C(=O)N[C@@H](CCCNC(=N)N)C(=O)N[C@@H](C)C(=O)N[C@@H](C)C(=O)N[C@@H](CCCCNC(=O)COCCOCCNC(=O)COCCOCCNC(=O)CC[C@H](NC(=O)CCCCCCCCCCCCCCC(=O)O)C(=O)O)C(=O)N[C@@H](CC(=O)O)C(=O)N[C@@H](Cc1ccccc1)C(=O)N[C@H](C(=O)N[C@@H](CCC(N)=O)C(=O)N[C@@H](Cc1c[nH]c2ccccc12)C(=O)N[C@@H](CC(C)C)C(=O)N[C@@H](CCS(C)(=O)=O)C(=O)N[C@@](C)(CC(=O)O)C(=O)N[C@H](C(N)=O)[C@@H](C)O)C(C)C) [TP618] | 0.36 | 2.48
5 | H[αMeS]QGTFTSDYSKYLDARAAK([AEEA-AEEA-γGlu-C18 diacid])DFVQWL[Met(O2)][αMeD]T-NH2 (N-terminus assumed; SMILES CC(C)C[C@H](NC(=O)[C@H](Cc1ccc(O)cc1)NC(=O)[C@H](CCCCN)NC(=O)[C@H](CO)NC(=O)[C@H](Cc1ccc(O)cc1)NC(=O)[C@H](CC(=O)O)NC(=O)[C@H](CO)NC(=O)[C@@H](NC(=O)[C@H](Cc1ccccc1)NC(=O)[C@@H](NC(=O)CNC(=O)[C@H](CCC(N)=O)NC(=O)[C@](C)(CO)NC(=O)[C@@H](N)Cc1c[nH]cn1)[C@@H](C)O)[C@@H](C)O)C(=O)N[C@@H](CC(=O)O)C(=O)N[C@@H](C)C(=O)N[C@@H](CCCNC(=N)N)C(=O)N[C@@H](C)C(=O)N[C@@H](C)C(=O)N[C@@H](CCCCNC(=O)COCCOCCNC(=O)COCCOCCNC(=O)CC[C@H](NC(=O)CCCCCCCCCCCCCCCCC(=O)O)C(=O)O)C(=O)N[C@@H](CC(=O)O)C(=O)N[C@@H](Cc1ccccc1)C(=O)N[C@H](C(=O)N[C@@H](CCC(N)=O)C(=O)N[C@@H](Cc1c[nH]c2ccccc12)C(=O)N[C@@H](CC(C)C)C(=O)N[C@@H](CCS(C)(=O)=O)C(=O)N[C@@](C)(CC(=O)O)C(=O)N[C@H](C(N)=O)[C@@H](C)O)C(C)C) [TP616] | 1.39 | 1.96
6 | H[αMeS]QGTFTSDYSKYLDARAAQK([AEEA-AEEA-γGlu-C18 diacid])FVQWL[Met(O2)][αMeD]T-NH2 (N-terminus assumed; SMILES CC(C)C[C@H](NC(=O)[C@H](Cc1ccc(O)cc1)NC(=O)[C@H](CCCCN)NC(=O)[C@H](CO)NC(=O)[C@H](Cc1ccc(O)cc1)NC(=O)[C@H](CC(=O)O)NC(=O)[C@H](CO)NC(=O)[C@@H](NC(=O)[C@H](Cc1ccccc1)NC(=O)[C@@H](NC(=O)CNC(=O)[C@H](CCC(N)=O)NC(=O)[C@](C)(CO)NC(=O)[C@@H](N)Cc1c[nH]cn1)[C@@H](C)O)[C@@H](C)O)C(=O)N[C@@H](CC(=O)O)C(=O)N[C@@H](C)C(=O)N[C@@H](CCCNC(=N)N)C(=O)N[C@@H](C)C(=O)N[C@@H](C)C(=O)N[C@@H](CCC(N)=O)C(=O)N[C@@H](CCCCNC(=O)COCCOCCNC(=O)COCCOCCNC(=O)CC[C@H](NC(=O)CCCCCCCCCCCCCCCCC(=O)O)C(=O)O)C(=O)N[C@@H](Cc1ccccc1)C(=O)N[C@H](C(=O)N[C@@H](CCC(N)=O)C(=O)N[C@@H](Cc1c[nH]c2ccccc12)C(=O)N[C@@H](CC(C)C)C(=O)N[C@@H](CCS(C)(=O)=O)C(=O)N[C@@](C)(CC(=O)O)C(=O)N[C@H](C(N)=O)[C@@H](C)O)C(C)C) [TP617] | 0.56 | 0.76
